According to patent US20180371083A1 (Merck Sharp & Dohme, published 2018):

T1: human TIGIT expressed on cells (CHO-K1 transfectants; Jurkat over-expressing human TIGIT) (human, UniProt Q495A1 25-244)
T1 sequence: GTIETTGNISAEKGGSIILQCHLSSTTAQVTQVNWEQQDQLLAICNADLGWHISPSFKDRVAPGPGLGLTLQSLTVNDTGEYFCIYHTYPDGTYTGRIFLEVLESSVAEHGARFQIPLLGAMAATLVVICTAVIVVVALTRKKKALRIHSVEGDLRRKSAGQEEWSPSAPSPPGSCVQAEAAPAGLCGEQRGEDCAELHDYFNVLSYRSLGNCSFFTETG

T2: human TIGIT-His protein (extracellular domain of human TIGIT fused to His tag) (human, UniProt Q495A1 25-141)
T2 construct: also called hTIGIT-His; hTIGIT-HIS
T2 sequence: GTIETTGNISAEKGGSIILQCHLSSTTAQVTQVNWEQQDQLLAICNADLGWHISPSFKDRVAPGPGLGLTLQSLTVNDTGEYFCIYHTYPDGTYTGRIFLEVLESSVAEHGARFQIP

B1: mouse anti-human TIGIT antibody 14D7 (clone MEB125.14D7) (antibody, V domains shown)
VH: EVKLEESGGGLVQPGGSMKLSCVASGFTFSGAWMDWVRQSPEKGLEWVAEIRTKVNNHATNYGESVKGRFTISRDDSKSSVYLQMNNLRAEDSGIYYCRGALYDGFYFDYWGQGTTLTVSS
VL: QIVLTQSPAIMSASPGEKVNLTCSASSSVSSGYLYWYQQKPGSSPKLWIYGTSTLASGVPARFSGSGSGTSYSLTISNMEAEDAASYFCHQWSSFPYTFGGGTKLEMK
notes: Mouse IgG1/kappa; also called 14D7 (mIgG1/K); MEB125.14D7.C1.C1
B2: mouse anti-human TIGIT antibody 26B10 (clone MEB125.26B10) (antibody, V domains shown)
VH: EVQLQQSGPELVKPGASVKISCKTSGYTFTEFTMHWVKQSHGKSLEWIGGLKPDNGGISYNQKFKGRATLAVDKSSNTAYMELRSLTSEDSAVYYCARGAYYRYDADYWGQGTTLTVSS
VL: DIVLTQSHKFMSTSVGDRVSITCKASQDVKTAVAWYQQKSGQSPKLLIYSASYRNTGVPDRFTGSGSGTDFTFTIDSVQAEDLAVYFCQQHYSTPFTFGTGTKLELK
notes: Mouse IgG1/kappa; also called 26B10 (mIgG1/K)

Columns and labels:
[1] = target: T1, human TIGIT expressed on cells (CHO-K1 …); experiment: cell-based or functional assay
[2] = target: T2, human TIGIT-His protein (extracellular …); experiment: SPR, Biacore T200; antibody captured on anti-mouse IgG, human TIGIT-His as analyte; 1:1 Langmuir fit
Procedure: The kinetic binding activity of anti-human TIGIT antibodies 14D7 and 26B10 (made as described in Example 1) and of commercial antibody MBSA43 was measured by surface plasmon resonance using a Biacore T200 system (Biacore, GE Healthcare, Piscataway, N.J.). […] Mouse anti-human TIGIT clones, 14D7, 26B10 and MBSA43, were each injected over the immobilized anti-mouse surfaces at 1 μg/mL for a capture level of 40 RU. HBS-EP+ buffer (BR-1006-69) was used as the running buffer with a flow rate of 30 μL/min. Varying concentrations of human TIGIT-His protein, ranging from 0.29 nM to 40 nM, at a flow rate of 45 μL/min were injected over the antibody surfaces. Following each Mouse anti-human TIGIT injection cycle, the Series S CM5 chip surface was regenerated using one three-minute injection of 10 mM Glycine pH 1.7 at a flow rate of 10 μL/min.
Background subtraction binding sensorgrams were used for analyzing the rate constant of association (kₐ) and dissociation (kd), and the equilibrium dissociation constant KD. The resulting data sets were fitted with a 1:1 Langmuir Binding Model using the Biacore T200 evaluation software (version 2.0). Table 3 summarizes the affinities for the anti-human TIGIT antibodies to human TIGIT-His protein.

[3] = target: T1, human TIGIT expressed on cells (CHO-K1 …); experiment: cell-based ELISA on CHO cells expressing human TIGIT (panel 'Binding to CHO-human TIGIT Cells')
[4] = target: T3, cynomolgous/rhesus TIGIT expressed on CHO-K1 cells (cynomolgous monkey / rhesus monkey); experiment: cell-based ELISA on CHO cells expressing rhesus TIGIT (panel 'Binding to CHO-rhesus TIGIT Cells')
T3 construct: also called cyno/rhesus TIGIT; cyno/rhesus TIGIT-CHOK1 cells
T3 sequence (chain, as listed by the source): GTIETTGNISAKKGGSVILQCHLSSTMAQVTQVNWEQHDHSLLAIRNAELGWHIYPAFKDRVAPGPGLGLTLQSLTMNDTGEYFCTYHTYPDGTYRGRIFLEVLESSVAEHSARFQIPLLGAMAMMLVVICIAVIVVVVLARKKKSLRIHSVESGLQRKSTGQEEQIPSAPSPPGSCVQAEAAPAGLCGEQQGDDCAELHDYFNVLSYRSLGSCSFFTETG

[5] = target: T1, human TIGIT expressed on cells (CHO-K1 …); experiment: cell-based ELISA blocking assay: binding of human CD155-huFc to CHO-hTIGIT cells in the presence of titrated antibody

Row | Binder | EC50, rescue of IL-2 in hTIGIT-Jurkat / THP-1 co-culture with CD155-Fc or CD112-Fc [1] [ng/mL] | Kd [2] [nM] | EC50 (read off the curve) [3] [ng/mL] | EC50 (read off the curve) [4] [ng/mL] | IC50 (read off the curve) [5] [ng/mL]
1 | B1 | 170 | 0.0046 | ~0.06 | ~0.06 | ~80000
2 | B2 | 190 | 0.14 | ~0.05 | ~0.04 | ~50000
